# Results from US20240108766A1 (Bayer, published 2024).
# Substitutions are numbered along the chain they refer to.
# T1: human LRRC15 expressed on cells (human, UniProt Q8TF66 22-581)
# T1 construct: whole, on cells; On HEK293 cells transfected with LRRC15/ZsGreen1 (Retrogenix), on HT29 cells transfected with human LRRC15, and endogenous on Saos-2; also called LRRC15/ZsGreen1 transfected HEK293 cells; HT29-LRRC15
# T1 sequence (looked up): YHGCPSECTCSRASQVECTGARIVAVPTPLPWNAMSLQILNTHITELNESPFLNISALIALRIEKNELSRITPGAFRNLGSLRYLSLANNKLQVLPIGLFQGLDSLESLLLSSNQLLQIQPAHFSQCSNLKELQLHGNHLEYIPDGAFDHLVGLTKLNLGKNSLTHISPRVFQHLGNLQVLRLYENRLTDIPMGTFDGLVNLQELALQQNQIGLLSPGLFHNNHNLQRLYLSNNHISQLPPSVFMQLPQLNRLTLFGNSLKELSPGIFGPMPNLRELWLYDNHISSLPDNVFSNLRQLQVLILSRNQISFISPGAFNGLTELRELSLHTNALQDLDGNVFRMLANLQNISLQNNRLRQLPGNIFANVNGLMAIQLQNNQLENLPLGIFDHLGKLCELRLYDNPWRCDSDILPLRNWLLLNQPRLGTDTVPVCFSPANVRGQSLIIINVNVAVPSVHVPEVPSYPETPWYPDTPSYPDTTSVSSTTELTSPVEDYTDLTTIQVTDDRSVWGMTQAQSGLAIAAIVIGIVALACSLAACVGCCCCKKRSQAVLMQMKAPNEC
# T2: Ephrin type-B receptor 6 (EPHB6) on transfected HEK293 cells (human, UniProt O15197 32-1021)
# T2 construct: whole, on cells; also called EPHB6/ZsGreen1
# T2 sequence (looked up): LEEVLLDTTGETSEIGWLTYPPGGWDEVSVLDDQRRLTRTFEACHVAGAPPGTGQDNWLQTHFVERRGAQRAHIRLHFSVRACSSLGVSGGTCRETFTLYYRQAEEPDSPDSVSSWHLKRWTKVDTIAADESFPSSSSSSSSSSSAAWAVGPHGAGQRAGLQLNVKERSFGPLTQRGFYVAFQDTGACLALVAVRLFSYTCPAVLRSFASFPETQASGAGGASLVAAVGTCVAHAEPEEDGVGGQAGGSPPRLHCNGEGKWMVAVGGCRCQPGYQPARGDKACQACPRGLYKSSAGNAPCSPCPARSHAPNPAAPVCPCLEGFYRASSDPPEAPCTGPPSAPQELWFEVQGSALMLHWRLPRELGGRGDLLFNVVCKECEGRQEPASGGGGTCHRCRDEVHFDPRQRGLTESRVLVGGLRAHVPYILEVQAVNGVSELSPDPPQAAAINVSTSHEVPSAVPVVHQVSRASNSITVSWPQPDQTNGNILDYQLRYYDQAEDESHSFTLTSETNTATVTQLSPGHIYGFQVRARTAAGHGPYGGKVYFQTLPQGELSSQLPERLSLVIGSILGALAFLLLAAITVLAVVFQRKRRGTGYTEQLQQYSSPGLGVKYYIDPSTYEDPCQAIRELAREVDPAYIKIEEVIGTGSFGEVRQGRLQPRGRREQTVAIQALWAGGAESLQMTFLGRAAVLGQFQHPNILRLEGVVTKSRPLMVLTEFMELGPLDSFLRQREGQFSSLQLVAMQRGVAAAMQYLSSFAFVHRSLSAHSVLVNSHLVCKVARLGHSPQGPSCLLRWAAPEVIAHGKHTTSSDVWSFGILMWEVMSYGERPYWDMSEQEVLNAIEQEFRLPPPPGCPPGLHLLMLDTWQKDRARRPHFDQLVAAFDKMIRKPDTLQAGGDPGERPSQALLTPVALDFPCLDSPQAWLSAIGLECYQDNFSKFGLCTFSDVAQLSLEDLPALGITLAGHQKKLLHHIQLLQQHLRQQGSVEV
# B1: TPP-12942 (antibody, human IgG1, kappa, V domains shown)
# VH: EVQLVQSGAEVKKPGASVKVSCKASGYKFSSYWIEWVKQAPGQGLEWIGEILPGSDTTNYNEKFKDRATFTSDTSINTAYMELSRLRSDDTAVYYCARDRGNYRAWFGYWGQGTLVTVSS
# VL: DIQMTQSPSSLSASVGDRVTITCRASQDISNYLNWYQQKPGGAVKFLIYYTSRLHSGVPSRFSGSGSGTDYTLTISSLQPEDFATYFCQQGEALPWTFGGGTKVEIKR
# notes: Prior art humanized IgG1 kappa antibody, used as comparator; also called huM25; huM25-hIgG1Kappa
# B2: TPP-17421 (antibody, human IgG1, kappa, V domains shown)
# VH: B1 VH with T57W, G108Q
# VL: B1 VL with D28S, N31S, V44P, T51A, R53S, H55Q, F87Y, E92L, A93E
# notes: also called 438H-M306-C11-hIgG1Kappa
# B3: TPP-17078 (antibody, human IgG1, kappa, V domains shown)
# VH: B1 VH
# VL: B1 VL with D28S, N31S, V44P, T51A, R53S, H55Q, F87Y, E92F, A93S
# notes: also called 438H-M308-H05-hIgGkappa
# B4: TPP-14389 (antibody, human IgG1, kappa, V domains shown)
# VH: EVQLLESGGGLVQPGGSLRLSCAASGFTFSGYMMSWVRQAPGKGLEWVSGIYPSPGYTYYADSVKGRFTISRDNSKNTLYLQMNSLRAEDTAVYYCAREKASDLFGSYSEALDYWGQGTLVTVSS
# VL: DIQMTQSPDSLSASVGDRVTITCRASQDVGSWLAWYQQKPGKAPKLLIFAASSLESGIPSRFSGSGSGTDFTLTISSLQPEDFATYYCQQANGFPLTFGGGTKVEIKR
# notes: also called 13612-rec02-hIgG1Kappa
# Assays:
# [1] = biological target: T1, human LRRC15 expressed on cells; assay: flow cytometry, transfected HEK293
# [2] = biological target: T1, human LRRC15 expressed on cells; assay: flow cytometry, transfected HEK293; TPP-12942, first of the three values listed 'respectively'
# From the text: (§1) Plotted is the Median AF647 Fluorescence versus antibody concentration. Background binding of each antibody to the cells (i.e. binding to ZsGreen1-only transfectants) is subtracted from the LRRC15 transfected cells at each antibody dose.
# (§2) Shown is the median fluorescence of AF647 labeled secondary antibody versus antibody concentration as determined by flow cytometry. Background binding of each antibody to the cells (i.e. binding to ZsGreen1 only transfectants) can be subtracted from the LRRC15 transfected cells for each antibody concentration.
# [3] = biological target: T2, Ephrin type-B receptor 6 (EPHB6) on …; assay: flow cytometry, transfected HEK293, 12.5 µg/ml
# [4] = biological target: T2, Ephrin type-B receptor 6 (EPHB6) on …; assay: flow cytometry, transfected HEK293, 0.004 µg/ml
# [5] = biological target: T2, Ephrin type-B receptor 6 (EPHB6) on …; assay: flow cytometry, transfected HEK293, 0.5 µg/ml
# [6] = biological target: T2, Ephrin type-B receptor 6 (EPHB6) on …; assay: flow cytometry, transfected HEK293, 2.5 µg/ml
# [7] = biological target: T2, Ephrin type-B receptor 6 (EPHB6) on …; assay: flow cytometry, live transfected HEK293 cells
# [8] = biological target: T2, Ephrin type-B receptor 6 (EPHB6) on …; assay: flow cytometry, transfected HEK293, 0.02 µg/ml
# [9] = biological target: T2, Ephrin type-B receptor 6 (EPHB6) on …; assay: flow cytometry, transfected HEK293, 0 µg/ml
# [10] = biological target: T2, Ephrin type-B receptor 6 (EPHB6) on …; assay: flow cytometry, transfected HEK293, 62.5 µg/ml
# [11] = biological target: T2, Ephrin type-B receptor 6 (EPHB6) on …; assay: flow cytometry, transfected HEK293, 0.1 µg/ml
# [12] = biological target: T1, human LRRC15 expressed on cells; assay: flow cytometry, transfected HEK293; TPP-17078, second of the three values listed 'respectively'
# From the text: as §1, §2
# [13] = biological target: T3, Cathepsin S (CTSS) on transfected HEK293 cells (human, UniProt P25774 115-331); assay: flow cytometry, live transfected HEK293 cells
# T3 construct: whole, on cells; also called CTSS/ZsGreen1
# T3 sequence (P25774 115-331): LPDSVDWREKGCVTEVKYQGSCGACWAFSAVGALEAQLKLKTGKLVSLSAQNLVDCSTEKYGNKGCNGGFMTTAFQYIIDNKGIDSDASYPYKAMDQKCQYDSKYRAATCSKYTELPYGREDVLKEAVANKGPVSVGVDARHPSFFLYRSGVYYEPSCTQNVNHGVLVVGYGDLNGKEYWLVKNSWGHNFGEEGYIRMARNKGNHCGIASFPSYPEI
# [14] = biological target: T1, human LRRC15 expressed on cells; assay: flow cytometry, transfected HEK293; remark: listed apart in the source
# From the text: Shown is the Median Fluorescence of AF647-labeled secondary antibody versus antibody concentration as determined by flow cytometry.
Binder,EC50 [1] [µg/mL],EC50 [2] [µg/mL],Median Fluorescence AF647 [3],Median Fluorescence AF647 [4],Median Fluorescence AF647 [5],Median Fluorescence AF647 [6],binding result [7],Median Fluorescence AF647 [8],Median Fluorescence AF647 [9],Median Fluorescence AF647 [10],Median Fluorescence AF647 [11],EC50 [12] [µg/mL],binding result [13],EC50 [14] [µg/mL]
B1,1.4,0.2,–,–,–,–,–,–,–,–,–,–,–,–
B2,–,–,5390,1250,3150,4150,no binding (tested: up to 62.5 µg/ml),1770,628,9050,2810,–,–,–
B3,–,–,7970,1780,3680,5480,–,2540,633,14600,3190,0.15,–,–
B4,–,–,–,–,–,–,–,–,–,–,–,–,no binding (tested: up to 62.5 µg/ml),0.26
